Consider 14 molecules from patent publication US20230348573A1 (KEIO UNIVERSITY, published 2023).

B1: Ab830 (antibody, V domains shown)
VH: QVQLVQSGAEVKKPGSSVKVSCKTSGGTFTNYTISWVRQAPGQGLEWMGRIIPIFDIVNYAQKFQGRVTITADKSTSTTYMELSSLRSEDTAVYYCARDGVLYDTSGYLYDAFDIWGQGTMVTVSS
VL: DIQMTQSPSSLSASVGDRVTITCRASQGINNYLAWFQQKPGKAPKSLIYAASSLQSGVPPKFSGSGSGTDFTLTISSLQPEDFATYYCLHYNSYPWTFGQGTKVEIK
B2: Ab864 (antibody, V domains shown)
VH: EVQLVESGGGLVQPGRSLRLSCAASGFTFDDYAMHWVRQVPGKGLEWVSGISWNKGNIDYADSVKGRFTISRDNAKNSLYLQMNSLRPEDTGLYYCAKDCHYDSPGYFPNCLHSWGQGTLVTVSS
VL: EIVMTQSPSSLSASVGDRVTITCRASQGINTYLAWYQQKPGKAPKLLIYTASTLQSGVPSRFSGSGSGTDFTLTISSLQPEDFATYYCQQVHSYPLTFGGGTKVEIK
B3: Ab765 (antibody, V domains shown)
VH: QVQLVESGGGVVQPGRSLRLSCAASGFTFSDYAIHWVRQAPGRGLEPVALISYDGNNKYYADSVKGRFTISRDNSKNVLYLQMNSLRADDTAVYYCARDAEGGWVAALDYWGQGTLVTVSS
VL: QSALTQPRSVSGSPGQSVTISCTGTSSDVGGYNYVSWYQHHPGKAPKVMIYEVSKRPSGVPDRFSGSKSGTTASLTISGLQAEDEADYYCCSYAGTYPYVFGTGTKVTVL
B4: Ab709TK (antibody, V domains shown)
VH: QVQLVESGGGVVQPGKSLRLSCAASGFTFSSYAMHWVRLAPGKGLEWVAVISPDGKNKYYVDSVKGRSTISRDNSKNTLYLLMNSLRAEDTAVYYCATTQSLWFGQFYYIYGMDVWGQGTTVTVSS
VL: QSVLTQPHSVSESPGKTITISCTGSSGSIASNYVQWYQQRPGSAPTTVIYEDTERPSGVPDRFSGSIDSSSNSASLTISGLKTEDEADYYCQSYDSNNVVFGGGTKLTVL
B5: Ab159 (antibody, V domains shown)
VH: QVQLVESGGGLVKPGGSLRLSCAASGFTFNNAWMSWVRQAPGKGLEWVGRIKSKTDGGTTDYAAPVKGRFTFSRDDSKNTLYLQMSSLKTEDTALYYCTTADYDILTGTPASPYWGQGTLVTVSS
VL: DIQMTQSPSSLSASVGDRVTITCRASQSITNYLNWYQQKPGKAPKFLIYAASSLQGGVPSRFRGSGSGTDFTLTISSLQPEDFATYYCQQTYSTLWTFGQGTKVEIK
B6: Ab354 (antibody, V domains shown)
VH: QVQLVQSGAEVKKPGASVTVSCKASGFLFTGYYMHWVRQAPGQGLEWMGWINPNSGASNYTRKFQGRVTMTRDTSISATYMKLSRLTSDDTAVYYCARDLAFSMVRGALDYWGQGTLVTVSS
VL: QLVLTQPPSASGSPGQSVTISCTGTSSDVGGYNYVSWYQHHPGKAPKLMIYEVSKRPSGVPDRFSGSKSGNTASLTVSGLQAEDEADYYCNSYAGNNNWVFGTGTKVTVL
B7: Ab326 (antibody, V domains shown)
VH: EVQLVESGGGVVQPGRSLRLSCAASGFTFSHYPMHWVRQAPGRGLEWVAVISYDGSNQHYVDSVKGRFTISRDNSKNTLYLQMNSLRAEDTAVYFCASLITMIRGVPDYWGQGTLVTVSS
VL: DIQMTQSPSSLSASVGDRVTITCRASQSISNYLNWYQQKPGKAPNLLIFAASSLQSGVPSRFSGSGSGTEFTLTISSLQPEDFAAYYCLQTYSTPRTFGQGTRLEIK
B8: Ab712 (antibody, V domains shown)
VH: QVQLVQSGSELKKPGASVKISCKASGYTFINHAINWVRQAPGQGLEWMGWINTNTGNPTYAPGFTGRFVFSLDTSVSTAYLQISSLKAEDTAVYYCARIPIRDYDYDGSGYYYFLDYWGQGTLVTVSS
VL: SYELTQDPAVSVALGQTVRITCQGDSLRSSSASWYQQKPGQAPVLVIYGKTNRPSGIPDRFSGSSSGNTASLTITGAQAEDEADYYCNSRDNSGNHPVVFGGGTKLTVL
B9: Ab803 (antibody, V domains shown)
VH: EVQLVESGGGLVQPGRSLRVSCAASGFTFDDYAMHWVRQTPRKGLEWVAGISRNSAAIAYADSVKGRFTISRDNAKNSVFLQMNGLRADDTALYYCVKSPRYGWGSPDYSFDFWGRGTLVTVSS
VL: DIQLTQSPSSLSASVGDRVTITCRASQNIGTYLNWYQQEPGKAPKLLIYAASSLQSGVPSRFSGSGSGTDFTLTISSLQPEDFATYCCQQSFTTPLTFGQGTKVEIK
B10: Ab863 (antibody, V domains shown)
VH: EVQLVQSGAEVKKPGASVKVSCQASGYTFITYYMHWVRQAPGQGLEWMGIINPDGGSISYAQKFQGRVTMTRDTSTSTVYMELSSLRSEDTAVYYCARGLSPTFSSSWFDNWGLGTLVTVSS
VL: DVVMTQSPATLSVSPGERATLSCRASQSVSSNLAWYQQKPGQAPRLLIYGASTRDTGIPARFSGSGSGTEFTLTISSLQSEDFAVYFCQQYKNWLLTFGGGTKVEIK
B11: Ab496 (antibody, V domains shown)
VH: EVQLVQSGPEVKKPGTSVKVSCKASGFIFTNSAVQWVRQARGQRLEWIGWIVVGSGNPNYAQKFQERVTITRDRSTSTAYMELSSLTSEDTAVYYCAAFPYYYDNSGSGPWGQGTLVTVSS
VL: DIQLTQSPSSLSASVGDRVTITCQASQDIRNNLNWYQQIPGKAPKLLIYDASNLETGVPSRFSGSASGTDFTFTISSLQPEDVATYYCQQYANLPPFTFGPGTKVDIK
B12: Ab847 (antibody, V domains shown)
VH: EVQLVQSGAEVKKPGASVKVSCKASGYTFTSYDIIWVRQATGQGLEWMGWMDPSRGTTGYAQTFQGRVTMTRDTSISTAYLELNSLTSEDTAVYYCVAHIVVLDRWFDPWGQGTLVTVSS
VL: DIVMTQSPSSLSASVGDRVTITCQASQDIGNFLNWCQQKPGQAPKVLIYGASNLETGVPSRFSGSGSGTDFTFTISSLQPEDIATYYCQHYDNFPPRFTFGQGTKLDIK
B13: Ab816 (antibody, V domains shown)
VH: QVQLVQSGAEVKKPGESLMISCKASGYNFRNYWIAWVRQMPGKGLEWMGIIHPGDSDIRYRPSLQGHVTISADKSITTAYLQWGSLKASDTAMYYCTRITTDADSSGLFHYWGQGTLVTVSS
VL: EIVLTQSPSTLSASVGDRVTITCRASQNIYTWLAWYQRKPGKAPKVLIYKASSLESGVPSRFSGSGSGTEFTLTISSLQPDDFATYYCQQYKSAWSFGQGTKVEIK
B14: Ab188 (antibody, V domains shown)
VH: EVQLVESGGGLVQPGGSLRLSCAASGFTFINYKMNWVRQAPGKGLEWVSYISSGSDAIYYADSVKGRFTISRDNAKNSLYLQMNSLRDEDTALYYCARGGGYNYGECMDVWGQGTTVTVSS
VL: not shown

One assay has as its target spike protein of SARS-CoV-2 α strain on pseudovirus (SARS-CoV-2 (α strain)). The assay is described as follows: cell-based or functional assay.
On to B1, for which the “IC50 of pseudovirus infection (luciferase)” value (shortened to “IC50 of pseudovirus infection”) was determined as 0.0374 µg/mL.
With B2, the “IC50 of pseudovirus infection” value came to 0.0098 µg/mL.
Turning to B3, the “IC50 of pseudovirus infection” value is 0.0166 µg/mL.
B4: the “IC50 of pseudovirus infection” value amounted to 0.236 µg/mL.
In the case of B5, the “IC50 of pseudovirus infection” value was determined as 0.0119 µg/mL.
Regarding B6, the “IC50 of pseudovirus infection” value was determined as 0.0937 µg/mL.
Take B7: the “IC50 of pseudovirus infection” value was 0.0493 µg/mL.
Turning to B8, the “IC50 of pseudovirus infection” value worked out at 0.103 µg/mL.
B9: the “IC50 of pseudovirus infection” value was 0.402 µg/mL.
As for B10, the “IC50 of pseudovirus infection” value was determined as 0.0301 µg/mL.
With B11, the “IC50 of pseudovirus infection” value was 0.0169 µg/mL.
Turning to B12, the “IC50 of pseudovirus infection” value was determined as 0.0821 µg/mL.
Same read-out and setting: as for B13, the figure is 0.0175 µg/mL; as for B14, 0.248 µg/mL.

The next assay concerns the target spike protein of SARS-CoV-2 β strain on pseudovirus (SARS-CoV-2 (β strain)). The assay is described as follows: cell-based or functional assay.
As to B1, the “IC50 of pseudovirus infection” value came out at 0.0569 µg/mL.
As for B2, the “IC50 of pseudovirus infection” value stood at 0.0044 µg/mL.
Regarding B3, the “IC50 of pseudovirus infection” value was 0.0045 µg/mL.
On to B4, for which the “IC50 of pseudovirus infection” value worked out at 0.0058 µg/mL.
B5: the “IC50 of pseudovirus infection” value amounted to 0.00537 µg/mL.
Turning to B8, the “IC50 of pseudovirus infection” value was 0.0077 µg/mL.
Turning to B9, the “IC50 of pseudovirus infection” value came out at 0.0104 µg/mL.
For B12, the “IC50 of pseudovirus infection” value was 0.0103 µg/mL.
B13: the “IC50 of pseudovirus infection” value is 0.0095 µg/mL.
Take B14: the “IC50 of pseudovirus infection” value was 0.0179 µg/mL.

Another assay deals with spike protein of SARS-CoV-2 γ strain on pseudovirus (SARS-CoV-2 (γ strain)). Put plainly: cell-based or functional assay.
Regarding B1, the “IC50 of pseudovirus infection” value was 0.0011 µg/mL.
For B3, the “IC50 of pseudovirus infection” value is 0.0144 µg/mL.
Regarding B4, the “IC50 of pseudovirus infection” value came to 0.0033 µg/mL.
With B5, the “IC50 of pseudovirus infection” value was found to be 0.00369 µg/mL.
As for B8, the “IC50 of pseudovirus infection” value amounted to 0.0022 µg/mL.
With B9, the “IC50 of pseudovirus infection” value was 0.0106 µg/mL.
As for B12, the “IC50 of pseudovirus infection” value turned out to be 0.0502 µg/mL.
On to B13, for which the “IC50 of pseudovirus infection” value is 0.0018 µg/mL.

The next assay has as its target spike protein of SARS-CoV-2 δ strain on pseudovirus (SARS-CoV-2 (δ strain)). The assay is described as follows: cell-based or functional assay.
Take B1: the “IC50 of pseudovirus infection” value came to 0.0554 µg/mL.
Regarding B2, the “IC50 of pseudovirus infection” value turned out to be 0.0172 µg/mL.
Take B3: the “IC50 of pseudovirus infection” value was 0.0269 µg/mL.
Regarding B4, the “IC50 of pseudovirus infection” value was 0.0586 µg/mL.
Still for that read-out and setting: as for B5, the figure is 0.13 µg/mL.
B6: the “IC50 of pseudovirus infection” value came to 0.0715 µg/mL.
On to B7, for which the “IC50 of pseudovirus infection” value came to 0.0184 µg/mL.
On to B8, for which the “IC50 of pseudovirus infection” value was determined as 0.0799 µg/mL.
Take B9: the “IC50 of pseudovirus infection” value turned out to be 0.0639 µg/mL.
In the case of B11, the “IC50 of pseudovirus infection” value was determined as 0.00984 µg/mL.
Consider B12, for which the “IC50 of pseudovirus infection” value came out at 0.0422 µg/mL.
B13: the “IC50 of pseudovirus infection” value turned out to be 0.0239 µg/mL.
With B14, the “IC50 of pseudovirus infection” value worked out at 0.139 µg/mL.

Another assay addresses spike protein of SARS-CoV-2 B.1.1.482 strain on pseudovirus (SARS-CoV-2 (B.1.1.482 strain)). The assay is described as follows: cell-based or functional assay.
Consider B1, for which the “IC50 of pseudovirus infection” value came to 0.0042 µg/mL.
Take B2: the “IC50 of pseudovirus infection” value came out at 0.0234 µg/mL.
Take B3: the “IC50 of pseudovirus infection” value amounted to 0.0117 µg/mL.
With B4, the “IC50 of pseudovirus infection” value was determined as 0.172 µg/mL.
For B5, the “IC50 of pseudovirus infection” value turned out to be 0.0233 µg/mL.
On to B6, for which the “IC50 of pseudovirus infection” value was found to be 0.277 µg/mL.
B8: the “IC50 of pseudovirus infection” value came out at 0.0164 µg/mL.
For the molecule B9, the “IC50 of pseudovirus infection” value was determined as 0.144 µg/mL.
For B11, the “IC50 of pseudovirus infection” value amounted to 0.0506 µg/mL.
Regarding B12, the “IC50 of pseudovirus infection” value stood at 0.0548 µg/mL.
For the molecule B13, the “IC50 of pseudovirus infection” value was determined as 0.0396 µg/mL.
The same measure, in the same setting: as for B14, the figure is 0.171 µg/mL.
